This note sets out measurements from patent US11207289B2, “Use of benzofuran lignans to induce IL-25 expression and suppress mammary tumor metastasis” (ACADEMIA SINICA, priority 2016, dated 2021).

The subject of one test is IL-25. The test is described as follows: IL-25 expression in lung fibroblasts, 4T1 tumor resection model (IF staining, flow cytometry). It is filed as in vivo, mice. The procedure:
BALB/c mice were subcutaneously injected with 4T1-Luc2 cells (5×10^5/100 μl PBS/mouse) into the fourth mammary fat pad under isoflurane anesthesia. Tumor growth was monitored by measuring the tumor volume according to the formula: volume=length×(width)^2/2. After tumors were established (180-200 mm^3) on day 14, test mice were divided into different groups (8 mice/group) and subjected to different treatments. At 15 days post tumor cell implantation, primary 4T1 tumors in situ were surgically removed by a tumor resection process. For drug treatment, mice were administered with different agents, including vehicle-control (PBS), mouse IL-25 protein (10 μg/kg, ProSpec, Vineland, N.J.), Q2-3 (2, 20 or 100 μg/kg) or docetaxel (2 mg/kg; Sigma-Aldrich), by intravenous injection for 3 weeks (3 injections/week) post tumor resection. For in vivo neutralization of mouse IL-25 activity, mice were treated intraperitoneally with either 100 μg anti-mouse IL-25 (IL-17E) antibody (clone 35B; Biolegend) or isotype control rat IgG (100 μg; rat, IgG1κ; Biolegend) at days 0, 3, 6, 9, 12, 15, 18 post tumor resection. To detect metastasis of human MDA-MD-231-Luc2 tumor cells, nude mice were injected subcutaneously with 5×10^5 MDA-MD-231-Luc2 cells into the mammary fat pad under isoflurane anesthesia. After tumors were established (250-350 mm^3) on day 24, test mice were divided into different groups (8 mice/group) and subjected to different treatments. At 25 days post tumor cell implantation, primary MDA-MD-231-Luc2 tumors in situ were surgically removed by a tumor resection process. For drug treatment, mice were administered with PBS (vehicle-control), Q2-3 (100 μg/kg), docetaxel (5 mg/kg) or Q2-3 (100 μg/kg)+docetaxel (5 mg/kg), by intravenous injection for 3 weeks (3 injections/week) post tumor resection. To monitor the progression of mouse (4T1) or human (MDA-MD-231) metastatic tumors, test mice treated with different drugs/agents were compared for their tumor metastatic activity and survival rate aftern another 8 weeks. Bioluminescence signals from the 4T1-luc2 tumor cells in test mice were analyzed using a non-invasive IVIS imaging system (Calipers, Hopkinton, Mass.) after intraperitoneal injection of 150 mg/kg D-luciferin (NanoLight technology, Pinetop, Ariz.).
Lung tissue specimens obtained from each tumor-resected mouse were fixed with 4% formalin and embedded in paraffin. For histological comparison, 6 μm-thick tissue sections were made and stained with hematoxylin and eosin (H&E). For immunofluorescence staining, fixed tissue sections were initially immersed in boiling sodium citrate buffer (0.01 M sodium citrate buffer, pH 6.0) for 30 min Lung tissue sections were blocked with 5% nonfat milk, and incubated with anti-FSP-1 antibody (1:200 dilution; Millipore), FITC-conjugated anti-CD206 antibody (1:200 dilution; Biolegend) or PE-conjugated anti-IL-25 antibody (1:100; R&D) in 1% nonfat milk for 1 hour at room temperature. Sections were then washed with PBS containing 0.1% Tween 20. To detect primary antibodies, some sections were incubated with FITC-conjugated anti-mouse-IgG (1:200; Jackson Immunoresearch, West Grove, Pa.) for FSP-1. 4′,6-Diamidino-2-phenylindole dihydrochloride (1 μg/ml; Sigma-Aldrich) was used to stain the nuclei. Fluorescence microscopy evaluation of immunostained tissue sections was performed using a Zeiss Axiovert 200 M microscope (Carl Zeiss, Heidelberg, Germany) Images were captured with a digital camera (Orca ER, Hamamatsu) and processed using Axiovision 4.6.3 (Carl Zeiss).
For detection of myeloid derived suppressor cells (MDSCs), cells from mouse lung tissue in each group were collected and stained for 30 min at 4° C. with antibodies against specific cell markers, including FITC-conjugated anti-mouse CD11b (for cell surface), APC-Cy7 conjugated anti-mouse Ly-6C and PE conjugated anti-mouse Ly-6G, (both for intracellular staining). All three antibodies were obtained from Biolegend, (San Diego, Calif.). […]
For orientation: A flow cytometer gives signals particle by particle.

The subject of a further test is MDA-MB-231 cells. The test is described as follows: MTT growth activity of MDA-MB-231 cells in fibroblast conditioned media. It is filed as cell-based, human. Conditions: MTT at 5 days; media applied every 24 hours; IL-25 protein 100 ng/ml. The procedure:
(§1) M10, WI38, SKBR3, and MDA-MB-231 cells (1×10^5 cells/ml) dispensed in 96-well plates were incubated with vehicle or test compounds (Q2-3) for 24 h or 72 h in corresponding basal medium in a 5% CO2 incubator. To evaluate the effect of secreted IL-25 from Q2-3-treated fibroblasts on growth activity of mammary tumor cells, 4T1 and MDA-MB-231 cells (1×10^4 cells/ml) dispensed in 96-well plates were incubated with control medium or different fibroblast conditioned media (200 μl/ml) which was changed daily for 5 days. All treatments were performed in triplicate cell cultures. The growth activity of cells was assayed using a 3-(4, 5-dimethythiazol-2-yl)-2, 5-diphenyl tetrazolium bromide (MTT; Sigma-Aldrich) colorimetric method. The absorbance at 570 nm (A570) was measured using a multiwall scanning spectrophotometer.
(§2) To pull down and deplete IL-25 protein molecules in 3T3 or MDA-MB-231 cell conditioned media, the Dynabeads antibody coupling kit (Life Technology; 14311D) was used according to the manufacturer's recommendations, yielding 10 mg/ml anti-IL25 antibody (ProteinTech, Chicago, Ill.)-coupled beads. The rabbit IgG (ProteinTech, Chicago, Ill.) was used as an isotype control antibody. […] The antibody-pulled down proteins from 3T3-CM, NHDF-CM or WI38-CM, were detected for the content of secreted IL-25 protein in each conditioned medium using western blot analysis. […]

The test system of another test is 4T1 cells. The test can be described thus: MTT growth activity of 4T1 cells in fibroblast conditioned media. The note with it: MTT at 5 days; media applied every 24 hours; IL-25 protein 100 ng/ml. Format: cell-based, mouse. As to the method:
as §1, §2

A further test has as its system caspases 8 and 3. The test is described as follows: Western blot of cleavage of caspases 8 and 3 in MDA-MB-231 cells. It is filed as cell-based, human. The procedure: MDA-MB231 and MCF-7 cells were seeded in 6-well plate at 10^5 cells/well for 24 h before transfection. siRNAs used for knockdown of human IL-25 receptor (IL25-RB) were purchased from Biotools (Taiwan, ROC) as follows: IL-17RB-homo-448 (IL-25R-1 siRNA); IL-17RB-homo-519 ([…]); IL-17RB-homo-956 ([…]); negative control (Neg). At the beginning of transfection, each test IL25R siRNA oligomers (100 pmol) was diluted in 250 μl Opti-MEM I Reduced Serum Medium. Aliquots of 5 μl Lipofectamine 2000 transfection reagent (Invitrogen) were diluted with 250 μl Opti-MEM I Reduced Serum Medium. Diluted oligomers were mixed gently with the diluted Lipofectamine 2000 and incubated for 20 min at room temperature. The oligomer-Lipofectamine 2000 complexes were subsequently added to each well containing cells and medium. Cells were incubated at 37° C. for 72 h until test cells were ready to be treated with IL25 cytokine or a different CM.
Cell lysates of 3T3, WI38, NHDF, MDA-MB-231, MCF-10A and MCF-7 or the IL-25-pulled down protein lysates from 3T3, WI38 or NHDF conditioned media were resolved by SDS PAGE using 8, 10 or 15% stepwise gels. […] Loading of equal amounts of protein was assessed using the mouse β-actin protein as a reference. […] Quantification of protein in luminescent bands was performed using ImageJ software. […]
(In general: In western blotting, separated proteins are transferred to a membrane and probed.)

Regarding `CC(=O)O[C@@]12CO[C@@H]1C[C@H](O)[C@@]1(C)C(=O)[C@H](O)C3=C(C)[C@@H](OC(=O)[C@H](O)[C@@H](NC(=O)OC(C)(C)C)c4ccccc4)C[C@@](O)([C@@H](OC(=O)c4ccccc4)[C@H]21)C3(C)C` [DT, docetaxel, reference compound], the “total FSP-1+ER-TR7+ fibroblast population in lung” value in the test with IL-25 (3 weeks post tumor resection, PBS control 5.2%) was “did not increase”. In addition, in the test on IL-25 (3 weeks post tumor resection, PBS control 16.7%), the “cell population of IL-25+ fibroblasts (FSP-1+ER-TR7+IL-25+ cells) in lung” value is listed as “did not increase”. Besides, the “IL-25 expression in lung fibroblasts (IF staining)” value in the test on IL-25 (Q2-3 100 μg/kg, 21 days post tumor resection) was “little or no IL-25 expression”.

B1: IL-25: human and mouse IL-25 recombinant protein (protein, UniProt Q9H293 33-177, looked up)
Interleukin-25: YSHWPSCCPSKGQDTSEELLRWSTVPVPPLEPARPNRHPESCRASEDGPLNSRAISPWRYELDRDLNRLPQDLYHARCLCPHCVSLQTGSHMDPRGNSELLYHNQTVFYRRPCHGEKGTHKGYCLERRLYRVSLACVCVRPRVMG
modifications: also mouse IL-25
notes: human and mouse IL-25 recombinant protein
Consider B1, for which the “growth activity of MDA-MB-231 cells” value with MDA-MB-231 cells is reported as “decreased the growth activity”. Besides, the “growth activity of 4T1 cells” value in the test with 4T1 cells is given as “decreased the growth activity”. Further, the “cleavage of caspases 8 and 3” value in the test with caspases 8 and 3 (MDA-MB-231, IL-25 100 ng/ml, 24 h) is “resulted in the cleavage of caspases 8 and 3”. For the same molecule, in the test on caspases 8 and 3 (MDA-MB-231 treated with IL-25R siRNA), the “cleavage of caspases 8 and 3 in cells treated with IL-25R siRNA” value is recorded as “not able to induce”.
